This is an account of results in IntAct's records for PubMed 24338975.

To fix the notation:
B1: G-rich sequence factor 1 (Homo sapiens), Q12849 (parent)
chain: MAGTRWVLGALLRGCGCNCSSCRRTGAACLPFYSAAGSIPSGVSGRRRLLLLLGAAAAAASQTRGLQTGPVPPGRLAGPPAVATSAAAAAAASYSALRASLLPQSLAAAAAVPTRSYSQESKTTYLEDLPPPPEYELAPSKLEEEVDDVFLIRAQGLPWSCTMEDVLNFFSDCRIRNGENGIHFLLNRDGKRRGDALIEMESEQDVQKALEKHRMYMGQRYVEVYEINNEDVDALMKSLQVKSSPVVNDGVVRLRGLPYSCNEKDIVDFFAGLNIVDITFVMDYRGRRKTGEAYVQFEEPEMANQALLKHREEIGNRYIEIFPSRRNEVRTHVGSYKGKKIASFPTAKYITEPEMVFEEHEVNEDIQPMTAFESEKEIELPKEVPEKLPEAADFGTTSSLHFVHMRGLPFQANAQDIINFFAPLKPVRITMEYSSSGKATGEADVHFETHEDAVAAMLKDRSHVHHRYIELFLNSCPKGK

In this assay the parent is B1. The settings on record: with psd10_human PSMD10, O75832.
Sequence of psd10_human PSMD10, O75832 (O75832 whole entry): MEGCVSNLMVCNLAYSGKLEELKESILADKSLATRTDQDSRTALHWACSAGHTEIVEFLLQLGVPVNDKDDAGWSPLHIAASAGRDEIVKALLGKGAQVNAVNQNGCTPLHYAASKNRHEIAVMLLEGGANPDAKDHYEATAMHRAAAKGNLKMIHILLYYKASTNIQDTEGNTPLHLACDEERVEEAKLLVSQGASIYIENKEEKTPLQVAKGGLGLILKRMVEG
As to E144A;E145A;D147A, the “effect of a mutation on the interaction” value is “disrupting interaction strength”.
